The values that follow are results of earlier work, collected in paper PMC9871243.

A word on the Kd: it is the free concentration of one partner at which half of the binding sites on the other are occupied at equilibrium, for simple one-to-one binding.

Series [1] concerns Influenza A virus virion (cited work), hemagglutinin (Influenza A virus). Particulars: modifications in the cited assays not stated, PBS, pH and binding temperature not stated.
Series [2] deals with Influenza A virus hemagglutinin (cited work) (Influenza A virus). The following applies: modifications in the cited assays not stated, PBS, pH and binding temperature not stated.

Regarding “TTGGGTTATTTTGGGAGGGCGGGGGTT [RHA0385 (as in cited works)]”, the dissociation constant Kd was 0.0011 nM in series [1] and 0.6 nM in series [2].
